Assay results as given in the supplement of paper PMC5998384.

Key:
[1] = test system: HeLa Kyoto; experiment: solubility in G1/S (NP-40 vs SDS abundance) (log2 ratio); higher = more soluble; conditions: cell cycle stage: G1/S
[2] = test system: HeLa Kyoto; experiment: solubility change mitosis vs G1/S (difference of NP-40 vs SDS log2 ratios) (log2 ratio difference); higher = more soluble in mitosis
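For solubility change mitosis vs G1/S (difference of NP-40 vs SDS log2 ratios) in this document: synchronized HeLa Kyoto cells (double thymidine block for G1/S, nocodazole release for mitosis), protein amounts in NP-40 versus SDS lysates quantified by mass spectrometry, three biological replicates.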
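For solubility in G1/S (NP-40 vs SDS abundance) in this document: HeLa Kyoto cells arrested at G1/S by double thymidine block, proteins quantified by TMT10plex mass spectrometry in mild NP-40 versus SDS extracts, three biological replicates.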

Substance | solubility in G1/S (log2) [1] | solubility change mitosis (log2) [2]
MATVLSRALKLPGKKSPDLGEYDPLTQADSDESEDDLVLNLQKNGGVKNGKSPLGEAPEPDSDAEVAEAAKPHLSEVTTEGYPSEPLGGLEQKAASSLVSYVRTSVFLLTLGISMILVLLCAFLIPCPPRDLHSTWSRHLGSQGGGDLSPLELADVNGDGLRDVLLSFVMSRNGSAVGVSRPAANLVCLSGMNGSTLWSSLLPEEARDITCLELMPGSLAETICLVTGTHKMLSAFNATSGKAIWTLNPNYLSNGTLAAPVVVLPDLDEDGVRDLVVLAIGELQPDLCFLLVSGRTGNPVGRPVKYNIVGVGNLIGPQVYITTNGAVYILFGFGNIQAVALRDIFVQAQNRDSSPPSLQIEEPEWEKRRSINLSELIDVYSDGVELLQMVKAPDSNCSNLLITTRQSLVLLRGQNLTPYWALRLQGLRSQPTPGYFTDDQTLDFLLQIQDGVGMKKMMVVDGDSGSIVWSYRAPCHMKETPATSAVTSDQKSVFLFWAEGLSAASPNSDIILGTEPPSLHHLYLLHPAFPSILLDLANTTGTVTASEVGINDLWKDAFYVTRTTGPSSEGHPAALVVSKLSLRWALMEGQMAQLQESTPKIGRGELRRFLSRIKFVEAPYEI [KIAA1467] | 0.0831 | -0.0551
MASLGPAAAGEQASGAEAEPGPAGPPPPPSPSSLGPLLPLQREPLYNWQATKASLKERFAFLFNSELLSDVRFVLGKGRGAAAAGGPQRIPAHRFVLAAGSAVFDAMFNGGMATTSAEIELPDVEPAAFLALLRFLYSDEVQIGPETVMTTLYTAKKYAVPALEAHCVEFLTKHLRADNAFMLLTQARLFDEPQLASLCLDTIDKSTMDAISAEGFTDIDIDTLCAVLERDTLSIRESRLFGAVVRWAEAECQRQQLPVTFGNKQKVLGKALSLIRFPLMTIEEFAAGPAQSGILSDREVVNLFLHFTVNPKPRVEYIDRPRCCLRGKECCINRFQQVESRWGYSGTSDRIRFTVNRRISIVGFGLYGSIHGPTDYQVNIQIIEYEKKQTLGQNDTGFSCDGTANTFRVMFKEPIEILPNVCYTACATLKGPDSHYGTKGLKKVVHETPAASKTVFFFFSSPGNNNGTSIEDGQIPEIIFYT [BTBD1] | -0.225 | 0.0289
MRSFLQQDVNKTKSRLNVLNGLANNMDDLKINTDITGAKEELLDDNNFISDKESGVHKPKDCQTSFQKNNTLTLPEELSKDKSENALSGGQSSLFIHAGAPTVSSENFILPKGAAVNGPVSHSSLTKTSNMNKGSVSLTTGQPVDQPTTESCSTLKVAADLQLSTPQKASQHQVLFLLSDVAHAKNPTHSNKKLPTSASVGCDIQNSVGSNIKSDGTLINQVEVGEDGEDLLVKDDCVNTVTGISSGTDGFRSENDTNWDPQKEFIQFLMTNEETVDKAPPHSKIGLEKKRKRKMDVSKITRYTEDCFSDSNCVPNKSKMQEVDFLEQNEELQAVDSQKYALSKVKPESTDEDLESVDAFQHLIYNPDKCGEESSPVHTSTFLSNTLKKKCEESDSESPATFSTEEPSFYPCTKCNVNFREKKHLHRHMMYHLDGNSHFRHLNVPRPYACRECGRTFRDRNSLLKHMIIHQERRQKLMEEIRELKELQDEGRSARLQCPQCVFGTNCPKTFVQHAKTHEKDKRYYCCEECNFMAVTENELECHRGIAHGAVVKCPMVTSDIAQRKTQKKTFMKDSVVGSSKKSATYICKMCPFTTSAKSVLKKHTEYLHSSSCVDSFGSPLGLDKRKNDILEEPVDSDSTKTLTKQQSTTFPKNSALKQDVKRTFGSTSQSSSFSKIHKRPHRIQKARKSIAQSGVNMCNQNSSPHKNVTIKSSVDQKPKYFHQAAKEKSNAKANSHYLYRHKYENYRMIKKSGESYPVHFKKEEASSLNSLHLFSSSSNSHNNFISDPHKPDAKRPESFKDHRRVAVKRVIKESKKESSVGGEDLDSYPDFLHKMTVVVLQKLNSAEKKDSYETEDESSWDNVELGDYTTQAIEDETYSDINQEHVNLFPLFKSKVEGQEPGENATLSYDQNDGFYFEYYEDTGSNNFLHEIHDPQHLETADASLSKHSSVFHWTDLSLEKKSCPYCPATFETGVGLSNHVRGHLHRAGLSYEARHVVSPEQIATSDKMQHFKRTGTGTPVKRVRKAIEKSETTSEHTCQLCGGWFDTKIGLSNHVRGHLKRLGKTKWDAHKSPICVLNEMMQNEEKYEKILKALNSRRIIPRPFVAQKLASSDDFISQNVIPLEAYRNGLKTEALSVSASEEEGLNFLNEYDETKPELPSGKKNQSLTLIELLKNKRMGEERNSAISPQKIHNQTARKRFVQKCVLPLNEDSPLMYQPQKMDLTMHSALDCKQKKSRSRSGSKKKMLTLPHGADEVYILRCRFCGLVFRGPLSVQEDWIKHLQRHIVNANLPRTGAGMVEVTSLLKKPASITETSFSLLMAEAAS [ZNF644] | -0.00511 | 0.321
MPVQAAQWTEFLSCPICYNEFDENVHKPISLGCSHTVCKTCLNKLHRKACPFDQTAINTDIDVLPVNFALLQLVGAQVPDHQSIKLSNLGENKHYEVAKKCVEDLALYLKPLSGGKGVASLNQSALSRPMQRKLVTLVNCQLVEEEGRVRAMRAARSLGERTVTELILQHQNPQQLSANLWAAVRARGCQFLGPAMQEEALKLVLLALEDGSALSRKVLVLFVVQRLEPRFPQASKTSIGHVVQLLYRASCFKVTKRDEDSSLMQLKEEFRSYEALRREHDAQIVHIAMEAGLRISPEQWSSLLYGDLAHKSHMQSIIDKLQSPESFAKSVQELTIVLQRTGDPANLNRLRPHLELLANIDPNPDAVSPTWEQLENAMVAVKTVVHGLVDFIQNYSRKGHETPQPQPNSKYKTSMCRDLRQQGGCPRGTNCTFAHSQEELEKYRLRNKKINATVRTFPLLNKVGVNNTVTTTAGNVISVIGSTETTGKIVPSTNGISNAENSVSQLISRSTDSTLRALETVKKVGKVGANGQNAAGPSADSVTENKIGSPPKTPVSNVAATSAGPSNVGTELNSVPQKSSPFLTRVPVYPPHSENIQYFQDPRTQIPFEVPQYPQTGYYPPPPTVPAGVAPCVPRFVRSNNVPESSLPPASMPYADHYSTFSPRDRMNSSPYQPPPPQPYGPVPPVPSGMYAPVYDSRRIWRPPMYQRDDIIRSNSLPPMDVMHSSVYQTSLRERYNSLDGYYSVACQPPSEPRTTVPLPREPCGHLKTSCEEQIRRKPDQWAQYHTQKAPLVSSTLPVATQSPTPPSPLFSVDFRADFSESVSGTKFEEDHLSHYSPWSCGTIGSCINAIDSEPKDVIANSNAVLMDLDSGDVKRRVHLFETQRRTKEEDPIIPFSDGPIISKWGAISRSSRTGYHTTDPVQATASQGSATKPISVSDYVPYVNAVDSRWSSYGNEATSSAHYVERDRFIVTDLSGHRKHSSTGDLLSLELQQAKSNSLLLQREANALAMQQKWNSLDEGRHLTLNLLSKEIELRNGELQSDYTEDATDTKPDRDIELELSALDTDEPDGQSEPIEEILDIQLGISSQNDQLLNGMAVENGHPVQQHQKEPPKQKKQSLGEDHVILEEQKTILPVTSCFSQPLPVSISNASCLPITTSVSAGNLILKTHVMSEDKNDFLKPVANGKMVNS [RC3H2] | 0.279 | -0.128
MERPSLRALLLGAAGLLLLLLPLSSSSSSDTCGPCEPASCPPLPPLGCLLGETRDACGCCPMCARGEGEPCGGGGAGRGYCAPGMECVKSRKRRKGKAGAAAGGPGVSGVCVCKSRYPVCGSDGTTYPSGCQLRAASQRAESRGEKAITQVSKGTCEQGPSIVTPPKDIWNVTGAQVYLSCEVIGIPTPVLIWNKVKRGHYGVQRTELLPGDRDNLAIQTRGGPEKHEVTGWVLVSPLSKEDAGEYECHASNSQGQASASAKITVVDALHEIPVKKGEGAEL [IGFBP7] | 0.0794 | 0.407
MGEPSREEYKIQSFDAETQQLLKTALKDPGAVDLEKVANVIVDHSLQDCVFSKEAGRMCYAIIQAESKQAGQSVFRRGLLNRLQQEYQAREQLRARSLQGWVCYVTFICNIFDYLRVNNMPMMALVNPVYDCLFRLAQPDSLSKEEEVDCLVLQLHRVGEQLEKMNGQRMDELFVLIRDGFLLPTGLSSLAQLLLLEIIEFRAAGWKTTPAAHKYYYSEVSD [MIF4GD] | 0.085 | 0.238
MGSAKSVPVTPARPPPHNKHLARVADPRSPSAGILRTPIQVESSPQPGLPAGEQLEGLKHAQDSDPRSPTLGIARTPMKTSSGDPPSPLVKQLSEVFETEDSKSNLPPEPVLPPEAPLSSELDLPLGTQLSVEEQMPPWNQTEFPSKQVFSKEEARQPTETPVASQSSDKPSRDPETPRSSGSMRNRWKPNSSKVLGRSPLTILQDDNSPGTLTLRQGKRPSPLSENVSELKEGAILGTGRLLKTGGRAWEQGQDHDKENQHFPLVES [CDCA3] | -0.032 | 0.957
MDPVVLSYMDSLLRQSDVSLLDPPSWLNDHIIGFAFEYFANSQFHDCSDHVSFISPEVTQFIKCTSNPAEIAMFLEPLDLPNKRVVFLAINDNSNQAAGGTHWSLLVYLQDKNSFFHYDSHSRSNSVHAKQVAEKLEAFLGRKGDKLAFVEEKAPAQQNSYDCGMYVICNTEALCQNFFRQQTESLLQLLTPAYITKKRGEWKDLITTLAKK [SENP8] | 0.62 | -0.151
OBSL1 | -0.276 | -0.0157
MQPPPRKVKVTQELKNIQVEQMTKLQAKHQAECDLLEDMRTFSQKKAAIEREYAQGMQKLASQYLKRDWPGVKADDRNDYRSMYPVWKSFLEGTMQVAQSRMNICENYKNFISEPARTVRSLKEQQLKRCVDQLTKIQTELQETVKDLAKGKKKYFETEQMAHAVREKADIEAKSKLSLFQSRISLQKASVKLKARRSECNSKATHARNDYLLTLAAANAHQDRYYQTDLVNIMKALDGNVYDHLKDYLIAFSRTELETCQAVQNTFQFLLENSSKVVRDYNLQLFLQENAVFHKPQPFQFQPCDSDTSRQLESETGTTEEHSLNKEARKWATRVAREHKNIVHQQRVLNDLECHGAAVSEQSRAELEQKIDEARENIRKAEIIKLKAEARLDLLKQIGVSVDTWLKSAMNQVMEELENERWARPPAVTSNGTLHSLNADTEREEGEEFEDNMDVFDDSSSSPSGTLRNYPLTCKVVYSYKASQPDELTIEEHEVLEVIEDGDMEDWVKARNKVGQVGYVPEKYLQFPTSNSLLSMLQSLAALDSRSHTSSNSTEAELVSGSLNGDASVCFVKALYDYEGQTDDELSFPEGAIIRILNKENQDDDGFWEGEFNGRIGVFPSVLVEELSASENGDTPWMREIQISPSPKPHASLPPLPLYDQPPSSPYPSPDKRSSLYFPRSPSANEKSLHAESPGFSQASRHTPETSYGKLRPVRAAPPPPTQNHRRPAEKIEDVEITLV [FCHSD2] | 0.194 | -0.00785
MAAAAVSSAKRSLRGELKQRLRAMSAEERLRQSRVLSQKVIAHSEYQKSKRISIFLSMQDEIETEEIIKDIFQRGKICFIPRYRFQSNHMDMVRIESPEEISLLPKTSWNIPQPGEGDVREEALSTGGLDLIFMPGLGFDKHGNRLGRGKGYYDAYLKRCLQHQEVKPYTLALAFKEQICLQVPVNENDMKVDEVLYEDSSTA [MTHFS] | 0.146 | 0.0622
MTAVNVALIRDTKWLTLEVCREFQRGTCSRADADCKFAHPPRVCHVENGRVVACFDSLKGRCTRENCKYLHPPPHLKTQLEINGRNNLIQQKTAAAMFAQQMQLMLQNAQMSSLGSFPMTPSIPANPPMAFNPYIPHPGMGLVPAELVPNTPVLIPGNPPLAMPGAVGPKLMRSDKLEVCREFQRGNCTRGENDCRYAHPTDASMIEASDNTVTICMDYIKGRCSREKCKYFHPPAHLQARLKAAHHQMNHSAASAMALQPGTLQLIPKRSALEKPNGATPVFNPTVFHCQQALTNLQLPQPAFIPAGPILCMAPASNIVPMMHGATPTTVSAATTPATSVPFAAPTTGNQLKF [MBNL3] | 0.0798 | 0.156
